Experiments:
[1] = molecular target: human carbonic anhydrase IX (CAIX) (human) (UniProt Q16790); test: competition ELISA on coated CAIX; competitor: biotinylated chimeric Girentuximab IgG1
[2] = molecular target: human carbonic anhydrase IX (CAIX) (human) (UniProt Q16790); test: SPR (Biacore T200), multicycle kinetics; purified antibody captured on Protein G chip, CAIX as analyte

relative IC50 (IC50 of the variant divided by IC50 of the Girentuximab chimeric IgG1 antibody on the same plate) [1]: < 2 fold | relative KD (KD of the variant divided by KD of the chimeric antibody on the same chip) [2]: < 2 fold
Substance: Chimeric Girentuximab (VH0/Vκ0) IgG4 (S228P, L235E) (antibody)
